Consider 21 molecules from patent US20220298260A1 (MYTHIC THERAPEUTICS, published 2022).

The chains are these.
B1: MYT2244 (antibody, V domains shown)
VH: EVQLVESGGGLVQPGGSLRLSCAASGFNIRTQSIHWVRQAPGKGLEWIGDIFPIDGITHYADSVKGRFTISADTSKNTAYLQMNSLRAEDTAVYYCARGSWSWPSGMDYYLDYWGQGTLVTVSS
VL: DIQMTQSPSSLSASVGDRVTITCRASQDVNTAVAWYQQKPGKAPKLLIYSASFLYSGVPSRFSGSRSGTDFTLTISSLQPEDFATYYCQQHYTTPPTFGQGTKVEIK
notes: IgG
B2: MYT0613 (antibody, V domains shown)
VH: QVQLVQSGAEVVKPGASVKISCKASGYTFTGYFMNWVKQSPGQSLEWIGRIHHYDGDTFYNQKFQGKATLTVDKSSNTAHMELLSLTSEDFAVYYCTRYDGSRAMDYWGQGTTVTVSS
VL: DIVLTQSPLSLAVSLGQPAIISCKASQSVSFAGTSLMHWYHQKPGQQPRLLIYRASNLEAGVPDRFSGSGSKTDFTLTISPVEAEDAATYYCQQSREYPYTFGGGTKLEIK
notes: IgG
B3: MYT0634 (antibody, V domains shown)
VH: QVQLVQSGAEVVKPGASVKISCKASGYTFTGYFMNWVKQSPGQSLEWIGRIHPYDGDTFYNQKFQGKATLTVDKSSNTAHMELLSLTSEDFAVYYCTRYDGSRHMDYWGQGTTVTVSS
VL: DIVLTQSPLSLAVSLGQPAIISCKASQSVSFAGTSLMHWYHQKPGQQPRLLIYRASNLEAGVPDRFSGSGSKTDFTLTISPVEAEDAATYYCQQSREYPYTFGGGTKLEIK
notes: IgG
B4: MYT0631 (antibody, V domains shown)
VH: QVQLVQSGAEVVKPGASVKISCKASGYTFTGYFMNWVKQSPGQSLEWIGRIHPYDGDTFYNQKFQGKATLTVDKSSNTAHMELLSLTSEDFAVYYCTRYDHSRAMDYWGQGTTVTVSS
VL: DIVLTQSPLSLAVSLGQPAIISCKASQSVSFAGTSLMHWYHQKPGQQPRLLIYRASNLEAGVPDRFSGSGSKTDFTLTISPVEAEDAATYYCQQSREYPYTFGGGTKLEIK
notes: IgG
B5: MYT4530 (antibody, V domains shown)
VH: EVQLVESGGGVVQPGRSLRLSCSASGFTFSGYGLSWVRQAPGKGLEWVAMISSGGSYTYYADSVKGRFAISRDNAKNTLFLQMDSLRPEDTGVYFCARHGDDPAWFAYWGQGTPVTVSS
VL: DIQLTQSPSSLSASVGDRVTITCSVSSSISSNNLHWYQQKPGKAPKPWIYGHSNLASGVPSRFSGSGSGTDYTFTISSLQPEDIATYYCQQWSSYPYMYTFGQGTKVEIK
notes: IgG
B6: MYT4533 (antibody, V domains shown)
VH: EVQLVESGGGVVQPGRSLRLSCSASGFTFSGYGLSWVRQAPGKGLEWVAMISSGGSYTYYADSVKGRFAISRDNAKNTLFLQMDSLRPEDTGVYFCARHGDDPAWFAYWGQGTPVTVSS
VL: DIQLTQSPSSLSASVGDRVTITCSVSSSISSNNLHWYQQKPGKAPKPWIYGTSNHASGVPSRFSGSGSGTDYTFTISSLQPEDIATYYCQQWSSYPYMYTFGQGTKVEIK
notes: IgG
B7: MYT4546 (antibody, V domains shown)
VH: EVQLVESGGGVVQPGRSLRLSCSASGFTFSGYGLSWVRQAPGKGLEWVAMISSGGSYTYYADSVKGRFAISRDNAKNTLFLQMDSLRPEDTGVYFCARHGDDPAWFAYWGQGTPVTVSS
VL: DIQLTQSPSSLSASVGDRVTITCSVSSSISSNNLHWYQQKPGKAPKPWIYGTSNLASGVPSRFSGSGSGTDYTFTISSLQPEDIATYYCQQWSSYPYMYHFGQGTKVEIK
notes: IgG
B8: MYT4536 (antibody, V domains shown)
VH: EVQLVESGGGVVQPGRSLRLSCSASGFTFSGYGLSWVRQAPGKGLEWVAMISSGGSYTYYADSVKGRFAISRDNAKNTLFLQMDSLRPEDTGVYFCARHGDDPAWFAYWGQGTPVTVSS
VL: DIQLTQSPSSLSASVGDRVTITCSVSSSISSNNLHWYQQKPGKAPKPWIYGTSNLASGVPSRFSGSGSGTDYTFTISSLQPEDIATYYCHQWSSYPYMYTFGQGTKVEIK
notes: IgG
B9: MYT4539 (antibody, V domains shown)
VH: EVQLVESGGGVVQPGRSLRLSCSASGFTFSGYGLSWVRQAPGKGLEWVAMISSGGSYTYYADSVKGRFAISRDNAKNTLFLQMDSLRPEDTGVYFCARHGDDPAWFAYWGQGTPVTVSS
VL: DIQLTQSPSSLSASVGDRVTITCSVSSSISSNNLHWYQQKPGKAPKPWIYGTSNLASGVPSRFSGSGSGTDYTFTISSLQPEDIATYYCQQWHSYPYMYTFGQGTKVEIK
notes: IgG
B10: MYT4543 (antibody, V domains shown)
VH: EVQLVESGGGVVQPGRSLRLSCSASGFTFSGYGLSWVRQAPGKGLEWVAMISSGGSYTYYADSVKGRFAISRDNAKNTLFLQMDSLRPEDTGVYFCARHGDDPAWFAYWGQGTPVTVSS
VL: DIQLTQSPSSLSASVGDRVTITCSVSSSISSNNLHWYQQKPGKAPKPWIYGTSNLASGVPSRFSGSGSGTDYTFTISSLQPEDIATYYCQQWSSYPHMYTFGQGTKVEIK
notes: IgG
B11: MYT4537 (antibody, V domains shown)
VH: EVQLVESGGGVVQPGRSLRLSCSASGFTFSGYGLSWVRQAPGKGLEWVAMISSGGSYTYYADSVKGRFAISRDNAKNTLFLQMDSLRPEDTGVYFCARHGDDPAWFAYWGQGTPVTVSS
VL: DIQLTQSPSSLSASVGDRVTITCSVSSSISSNNLHWYQQKPGKAPKPWIYGTSNLASGVPSRFSGSGSGTDYTFTISSLQPEDIATYYCQHWSSYPYMYTFGQGTKVEIK
notes: IgG
B12: MYT4542 (antibody, V domains shown)
VH: EVQLVESGGGVVQPGRSLRLSCSASGFTFSGYGLSWVRQAPGKGLEWVAMISSGGSYTYYADSVKGRFAISRDNAKNTLFLQMDSLRPEDTGVYFCARHGDDPAWFAYWGQGTPVTVSS
VL: DIQLTQSPSSLSASVGDRVTITCSVSSSISSNNLHWYQQKPGKAPKPWIYGTSNLASGVPSRFSGSGSGTDYTFTISSLQPEDIATYYCQQWSSYHYMYTFGQGTKVEIK
notes: IgG
B13: MYT4532 (antibody, V domains shown)
VH: EVQLVESGGGVVQPGRSLRLSCSASGFTFSGYGLSWVRQAPGKGLEWVAMISSGGSYTYYADSVKGRFAISRDNAKNTLFLQMDSLRPEDTGVYFCARHGDDPAWFAYWGQGTPVTVSS
VL: DIQLTQSPSSLSASVGDRVTITCSVSSSISSNNLHWYQQKPGKAPKPWIYGTSHLASGVPSRFSGSGSGTDYTFTISSLQPEDIATYYCQQWSSYPYMYTFGQGTKVEIK
notes: IgG
B14: MYT4540 (antibody, V domains shown)
VH: EVQLVESGGGVVQPGRSLRLSCSASGFTFSGYGLSWVRQAPGKGLEWVAMISSGGSYTYYADSVKGRFAISRDNAKNTLFLQMDSLRPEDTGVYFCARHGDDPAWFAYWGQGTPVTVSS
VL: DIQLTQSPSSLSASVGDRVTITCSVSSSISSNNLHWYQQKPGKAPKPWIYGTSNLASGVPSRFSGSGSGTDYTFTISSLQPEDIATYYCQQWSHYPYMYTFGQGTKVEIK
notes: IgG
B15: MYT4538 (antibody, V domains shown)
VH: EVQLVESGGGVVQPGRSLRLSCSASGFTFSGYGLSWVRQAPGKGLEWVAMISSGGSYTYYADSVKGRFAISRDNAKNTLFLQMDSLRPEDTGVYFCARHGDDPAWFAYWGQGTPVTVSS
VL: DIQLTQSPSSLSASVGDRVTITCSVSSSISSNNLHWYQQKPGKAPKPWIYGTSNLASGVPSRFSGSGSGTDYTFTISSLQPEDIATYYCQQHSSYPYMYTFGQGTKVEIK
notes: IgG
B16: MYT4544 (antibody, V domains shown)
VH: EVQLVESGGGVVQPGRSLRLSCSASGFTFSGYGLSWVRQAPGKGLEWVAMISSGGSYTYYADSVKGRFAISRDNAKNTLFLQMDSLRPEDTGVYFCARHGDDPAWFAYWGQGTPVTVSS
VL: DIQLTQSPSSLSASVGDRVTITCSVSSSISSNNLHWYQQKPGKAPKPWIYGTSNLASGVPSRFSGSGSGTDYTFTISSLQPEDIATYYCQQWSSYPYHYTFGQGTKVEIK
notes: IgG
B17: MYT4535 (antibody, V domains shown)
VH: EVQLVESGGGVVQPGRSLRLSCSASGFTFSGYGLSWVRQAPGKGLEWVAMISSGGSYTYYADSVKGRFAISRDNAKNTLFLQMDSLRPEDTGVYFCARHGDDPAWFAYWGQGTPVTVSS
VL: DIQLTQSPSSLSASVGDRVTITCSVSSSISSNNLHWYQQKPGKAPKPWIYGTSNLAHGVPSRFSGSGSGTDYTFTISSLQPEDIATYYCQQWSSYPYMYTFGQGTKVEIK
notes: IgG
B18: MYT4531 (antibody, V domains shown)
VH: EVQLVESGGGVVQPGRSLRLSCSASGFTFSGYGLSWVRQAPGKGLEWVAMISSGGSYTYYADSVKGRFAISRDNAKNTLFLQMDSLRPEDTGVYFCARHGDDPAWFAYWGQGTPVTVSS
VL: DIQLTQSPSSLSASVGDRVTITCSVSSSISSNNLHWYQQKPGKAPKPWIYGTHNLASGVPSRFSGSGSGTDYTFTISSLQPEDIATYYCQQWSSYPYMYTFGQGTKVEIK
notes: IgG
B19: MYT4541 (antibody, V domains shown)
VH: EVQLVESGGGVVQPGRSLRLSCSASGFTFSGYGLSWVRQAPGKGLEWVAMISSGGSYTYYADSVKGRFAISRDNAKNTLFLQMDSLRPEDTGVYFCARHGDDPAWFAYWGQGTPVTVSS
VL: DIQLTQSPSSLSASVGDRVTITCSVSSSISSNNLHWYQQKPGKAPKPWIYGTSNLASGVPSRFSGSGSGTDYTFTISSLQPEDIATYYCQQWSSHPYMYTFGQGTKVEIK
notes: IgG
B20: MYT4545 (antibody, V domains shown)
VH: EVQLVESGGGVVQPGRSLRLSCSASGFTFSGYGLSWVRQAPGKGLEWVAMISSGGSYTYYADSVKGRFAISRDNAKNTLFLQMDSLRPEDTGVYFCARHGDDPAWFAYWGQGTPVTVSS
VL: DIQLTQSPSSLSASVGDRVTITCSVSSSISSNNLHWYQQKPGKAPKPWIYGTSNLASGVPSRFSGSGSGTDYTFTISSLQPEDIATYYCQQWSSYPYMHTFGQGTKVEIK
notes: IgG
B21: MYT4534 (antibody, V domains shown)
VH: EVQLVESGGGVVQPGRSLRLSCSASGFTFSGYGLSWVRQAPGKGLEWVAMISSGGSYTYYADSVKGRFAISRDNAKNTLFLQMDSLRPEDTGVYFCARHGDDPAWFAYWGQGTPVTVSS
VL: DIQLTQSPSSLSASVGDRVTITCSVSSSISSNNLHWYQQKPGKAPKPWIYGTSNLHSGVPSRFSGSGSGTDYTFTISSLQPEDIATYYCQQWSSYPYMYTFGQGTKVEIK
notes: IgG

T1 sequence (P15328 25-233 limits assumed): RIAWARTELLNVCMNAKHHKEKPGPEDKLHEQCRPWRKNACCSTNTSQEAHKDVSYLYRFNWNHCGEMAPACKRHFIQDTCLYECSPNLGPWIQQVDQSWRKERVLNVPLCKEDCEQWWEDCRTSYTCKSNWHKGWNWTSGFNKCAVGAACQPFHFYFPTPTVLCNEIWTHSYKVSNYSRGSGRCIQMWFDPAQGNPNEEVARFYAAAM

The first assay concerns the target T1, FOLR1 (R&D Systems, Cat #5646-FR) (human, UniProt P15328 25-233).
T1 construct: Bought soluble protein; also called Folate Receptor 1
The assay can be described thus: BLI, IgG on anti-human Fc sensor. On the technique in general: Biolayer interferometry detects binding as a change in optical thickness at a sensor tip.
Regarding B1, the binding result was “no binding (tested: 50 nM)”.
The same measure, in the same setting: the value for B2 was “no binding (tested: 50 nM)”.
For the molecule B3, the binding result is listed as “no binding (tested: 50 nM)”.
On the same count and under the same terms, the value for B4 was “no binding (tested: 50 nM)”.

Another assay concerns the target T1, FOLR1 (R&D Systems, Cat #5646-FR). The assay can be described thus: BLI, IgG on anti-human Fc sensor, 50 nM FOLR1.
As for B5, the binding result is on record as “binds”.
Still for that read-out and setting: the value for B6 was “binds”; that for B7 was “binds”.
With B8, the binding result is recorded as “binds”.
Turning to B9, the binding result is on record as “binds”.
The same measure, in the same setting: the result for B10 reads “binds”.
On the same count and under the same terms, the result for B11 reads “binds”.
Consider B12, for which the binding result is listed as “binds”.
On the same count and under the same terms, the value for B13 was “binds”; that for B14 was “binds”; that for B15 was “binds”.
On to B16, for which the binding result is “binds”.
On to B17, for which the binding result was “binds”.
For B18, the binding result is reported as “binds”.
The same measure, in the same setting: the value for B19 was “binds”; that for B20 was “binds”.
For the molecule B21, the binding result is recorded as “binds”.
